The target in test [1] is T1, ∆14-SUMO2 precursor C48S/G93C with dehydroalanine at position 93 (SUMO2-DHA) (human, UniProt P61956 15-95, C48S | G93C, dehydroalanine (DHA) at position 93 (made from Cys93 of G93C with 2,5-dibromohexanediamide)).
T1 construct: SUMO2 precursor, human, with the immature C-terminal Val-Tyr after the di-glycine motif; Cys93 is turned into dehydroalanine, an electrophilic trap that reacts with the active site cysteine of the protease (Cys236 of USPL1); also called SUMO2 DHA precursor; ∆14-Sumo2 DHA; source: E. coli Rosetta (DE3), purified (Ni Sepharose, Resource Q); treated with 2,5-dibromohexanediamide and purified again …
T1 sequence (P61956 15-95 C48S/G93C): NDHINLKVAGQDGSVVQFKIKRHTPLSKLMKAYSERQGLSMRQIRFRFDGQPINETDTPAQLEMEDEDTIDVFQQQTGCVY
Description: cross-linking; active site probe assay: protease at 2 μM with SUMO2-DHA at 6 μM, 30 °C, 3 h; formation of the covalent thioether adduct; USPL1 wild type and mutants for 3 h. The note with it: both partners purified.

The target of test [2] is T1, ∆14-SUMO2 precursor C48S/G93C with …. Put plainly: cell-based or functional assay.

B1: USPL1 catalytic domain Y451F (enzyme, human, UniProt Q5W0Q7 212-514, looked up)
chain: MPLESKCTSFPQALCVQWKNAYALCWLDCILSALVHSEELKNTVTGLCSKEESIFWRLLTKYNQANTLLYTSQLSGVKDGDCKKLTSEIFAEIETCLNEVRDEIFISLQPQLRCTLGDMESPVFAFPLLLKLETHIEKLFLYSFSWDFECSQCGHQYQNRHMKSLVTFTNVIPEWHPLNAAHFGPCNNCNSKSQIRKMVLEKVSPIFMLHFVEGLPQNDLQHYAFHFEGCLYQITSVIQFRANNHFITWILDADGSWLECDDLKGPCSERHKKFEVPASEIHIVIWERKISQVTDKEAACLPL
notes: USPL1, human, catalytic domain Met212-Leu514, point mutant; Made by site-directed mutagenesis of pET28a-USPL1CD; source: E. coli Rosetta (DE3), purified (Ni Sepharose, Resource Q anion exchange); not shown: His tag (from the vector pET28a)
Turning to B1, the “fold decrease of binding against wild type” value in test [1] was 4 fold. For the same molecule, in test [2], the “proteolytic activity against SUMO2 substrates, fold decrease against wild type” value stood at 4 fold.

For the origin of these results see article PMC8983731, “Structural basis for the SUMO protease activity of the atypical ubiquitin-specific protease USPL1” (Nature Communications, 2022).
